Assay results published in patent US20250215101A1, “DR5 Agonist and PLK1 Inhibitor or CDK Inhibitor Combination Therapy” (Inhibrx Biosciences, Inc., priority 2022, published 2025).

Experiments:
[1] = test system: panel of colorectal cancer cell lines and panel of pancreatic cell lines; test: Cytotoxicity screen onvansertib +/- 1 nM INBRX-109, summary over the additional panels; type: cell-based; settings: combination of INBRX-109 and onvansertib
From the text: The results for a panel of colorectal cancer cell lines are shown in Table 3 and FIGS. 4-6, and the results for a panel of pancreatic cell lines are shown in Table 4 and FIGS. 7 and 8.

[2] = test system: cancer cell lines HT-29, LS174T, SW620, SW837, SW1463, and LS411N; test: Cytotoxicity screen INBRX-109 + onvansertib, summary over the cell lines; type: cell-based; settings: combination of INBRX-109 and onvansertib
Procedure: Monolayer cultures of each cell line were harvested for compound screening as detailed below.
Onvansertib: A 10 mg stock of onvansertib was purchased from Selleck Chemicals and was resuspended to 10 mM in DMSO. This was then aliquoted and stored at −80° C. Aliquots were thawed immediately prior to dilution and use in the assay. A 500× master plate of serial dilutions (6-point 5-fold dilutions in 100% DMSO starting at 500 μM, plus a DMSO only control) was prepared and mixed gently with a pipette. To generate a 5× working dilution plate of onvansertib, a 1:100 dilution was performed from the 500× plate into complete media (EMEM).
Also on day 2, test and control articles were added.
On day 4, viability measurements were taken. […] Data was graphed in GraphPad Prism 9.

[3] = test system: SW1353; test: Cell viability (CellTiter-Glo) cytotoxicity assay, INBRX-109 x CDK9 or MCL-1 inhibitor matrix, 48 h, chondrosarcoma line
Procedure: (§1) On day 1, cells were seeded as follows. Monolayer cultures of each cell line (chondrosarcoma: CAL-78, OUMS-27, SW1353, and H-EMC-SS; colorectal cancer: SW620; and synovial sarcoma: HS-SY-II) were harvested for compound screening. Culture medium was aspirated, and the cells were washed once with PBS. Accutase was added and flasks were incubated at 37° C. until cells became detached. An equal volume of complete medium was added to quench the Accutase, and the cells were then pipetted up and down several times to generate a homogenous single cell suspension. The density and viability of cells was determined by Trypan Blue using a TC20 Automated Cell Counter. Experimental cells were resuspended to a concentration of 0.17×10^6/mL in Eagle's Minimum Essential Medium (EMEM)/10% FBS/Anti-Anti media (complete EMEM) and seeded in the inner wells of 384-well luminescence plates at 15 mL/well (2,500/well final). Each cell line was plated in duplicate on separate plates. Outer wells were filled with 50 mL PBS, then plates were incubated in a humidified temperature-controlled 37° C. tissue culture incubator at 5% CO2 overnight for 16 hours.
(§2) These test articles were added, in duplicate, to each cell line. The plates were then centrifuged at 400×g for 1 minute, then incubated in a 37° C. humidity-controlled tissue culture incubator (5% CO2) for 48 hours.
(§3) After incubation with the test articles, viability measurements were taken, briefly. Plates were equilibrated to room temperature for 10 minutes, then 25 μL of CellTiter-Glo 2.0® was added to each well. Plates were spun for 1 minute at 400×g, then covered and incubated in the dark for 10 minutes at room temperature. Any visible bubbles were removed with 100% ethanol vapor, then luminescence (RLU) was read on the Spectra Max M5e plate reader, using the 384-well opaque plate setting and SoftMax® Pro v5.4 software with an integration time of 50 milliseconds. To determine the effect of test articles on cell viability, raw RLU values were exported to Excel and percent survival was calculated as a percentage of vehicle control (0.5% DMSO in EMEM), where the vehicle control is set at 100%. Data was graphed in GraphPad Prism 9.

[4] = test system: CAL-78; test: as above
Procedure: as §1, §2, §3

[5] = test system: H-EMC-SS; test: as above
Procedure: as §1, §2, §3

[6] = test system: HS-SY-II; test: Cell viability (CellTiter-Glo) cytotoxicity assay, INBRX-109 x CDK9 or MCL-1 inhibitor matrix, 48 h, synovial sarcoma line
Procedure: as §1, §2, §3

[7] = test system: SW620; test: Cell viability (CellTiter-Glo) cytotoxicity assay, INBRX-109 x CDK9 or MCL-1 inhibitor matrix, 48 h, colorectal cancer line
Procedure: as §1, §2, §3

[8] = test system: OUMS-27; test: Cell viability (CellTiter-Glo) cytotoxicity assay, INBRX-109 x CDK9 or MCL-1 inhibitor matrix, 48 h, chondrosarcoma line
Procedure: as §1, §2, §3

[9] = test system: several cancerous cell lines; test: Previous cytotoxicity assays with several cancerous cell lines; type: cell-based
[10] = INBRX-109 + 125 nM flavopiridol

## CN1CCN(c2ccc(OC(F)(F)F)c(Nc3ncc4c(n3)-c3c(c(C(N)=O)nn3CCO)CC4)c2)CC1 [Onvansertib]
[1]
  cell killing by the combination compared to either agent alone: increased cell killing
[2]
  cell killing by the combination: increased cell killing on every cancer cell line tested

B1: INBRX-109: DR5-binding polypeptide consisting of SEQ ID NO: 7 (two VHH domains and an Fc region); DR5 agonist (protein)
chain: EVQLLESGGGEVQPGGSLRLSCAASGLTFPNYGMGWFRQAPGKEREFVSAIYWSGGTVYYAESVKGRFTISRDNAKNTLYLQMSSLRAEDTAVYYCAVTIRGAATQTWKYDYWGQGTLVTVKPGGSGGSEVQLLESGGGEVQPGGSLRLSCAASGLTFPNYGMGWFRQAPGKEREFVSAIYWSGGTVYYAESVKGRFTISRDNAKNTLYLQMSSLRAEDTAVYYCAVTIRGAATQTWKYDYWGQGTLVTVKPGGGGDKTHTCPPCPAPGGPSVFLFPPKPKDTLMISRTPEVTCVVVDVSHEDPEVKFNWYVDGVEVHNAKTKPREEQYNSTYRVVSVLTVLHQDWLNGKEYKCKVSNKALPAPIEKTISKAKGQPREPQVYTLPPSRDELTKNQVSLTCLVKGFYPSDIAVEWESNGQPENNYKTTPPVLDSDGSFFLYSKLTVDKSRWQQGNVFSCSVMHEALHNHYTQKSLSLSPGK
modifications: INBRX-109
notes: DR5 agonist
[3]; INBRX-109 + 125 nM enitociclib
  EC50: 1.05 pM
[3]; [10]
  EC50: 2.81 pM
[3]; INBRX-109 + 2 μM AZD-5991
  EC50: 5.33 pM
[3]; INBRX-109 only (Table 5)
  EC50: unstable
[3]; INBRX-109 only (Table 7)
  EC50: unstable
[3]; INBRX-109 only (Table 9)
  EC50: Unstable
[3]; INBRX-109 only (Table 11)
  EC50: 9.1 pM
[3]; INBRX-109 only (Table 13)
  EC50: Unstable
[4]; INBRX-109 + 2 μM AZD-5991
  EC50: 3.93 pM
[4]; INBRX-109 only (Table 5)
  EC50: > 3600 pM
[4]; INBRX-109 only (Table 7)
  EC50: unstable
[4]; INBRX-109 only (Table 9)
  EC50: 17.2 pM
[4]; INBRX-109 only (Table 11)
  EC50: 28.9 pM
[5]; INBRX-109 + 125 nM enitociclib
  EC50: 2.33 pM
[5]; [10]
  EC50: 1.46 pM
[5]; INBRX-109 + 2 μM AZD-5991
  EC50: 2.59 pM
[5]; INBRX-109 only (Table 5)
  EC50: 2.2 pM
[5]; INBRX-109 only (Table 7)
  EC50: 1.96 pM
[5]; INBRX-109 only (Table 9)
  EC50: 9.25 pM
[5]; INBRX-109 only (Table 11)
  EC50: 9.26 pM
[5]; INBRX-109 only (Table 13)
  EC50: 10.2 pM
[6]; INBRX-109 + 125 nM enitociclib
  EC50: 646 pM
[6]; [10]
  EC50: 1.93 pM
[6]; INBRX-109 + 2 μM AZD-5991
  EC50: Unstable
[6]; INBRX-109 only (Table 9)
  EC50: Unstable
[6]; INBRX-109 only (Table 11)
  EC50: 11 pM
[7]; INBRX-109 + 2 μM AZD-5991
  EC50: 5.78 pM
[7]; INBRX-109 only (Table 5)
  EC50: 7.8 pM
[7]; INBRX-109 only (Table 7)
  EC50: 98.1 pM
[7]; INBRX-109 only (Table 9)
  EC50: 1.37 pM
[7]; INBRX-109 only (Table 11)
  EC50: 1.98 pM
[7]; INBRX-109 only (Table 13)
  EC50: 9.84 pM
[8]; INBRX-109 + 2 μM AZD-5991
  EC50: 8.71 pM
[8]; INBRX-109 only (Table 5)
  EC50: 982 pM
[8]; INBRX-109 only (Table 7)
  EC50: > 4090 pM
[8]; INBRX-109 only (Table 11)
  EC50: Unstable
[8]; INBRX-109 only (Table 13)
  EC50: 8870 pM
[9]
  maximally efficacious concentration: 1 nM
